Measurements from patent US6710165B2, “IgE-dependent histamine-releasing factor-binding peptides” (priority 2000, dated 2004).

Assays:
Type in all cases: cell-based
[1] = tested on: COS-7 cells; test: HRF's capability of transiting cell membrane (confocal microscopy, Western blotting); conditions: recombinant rat HRF added to COS-7 cell culture solution
Protocol: The full-length rat HRF sequence (Chitpatima, et al., 1988) amplified by PCR (polymerase chain reaction) was cloned in pRSET-A vector and then, overexpressed in E. coli. The expressed recombinant protein was purified by His-bound Ni column (Novagen) and then, added to COS-7 cell culture solution. COS-7 cells were immobilized with 3.7% formaldehyde containing Ca^2+ and Mg^2+ for 10 minutes. Then, the cells were stained with anti-His monoclonal antibodies (1:100) containing 0.1% saponin at room temperature for 1 hour. Subsequently, they were incubated with anti-mouse-FITC (1:100) secondary antibodies for 30 minutes. Anti-bleaching agent solution was added thereto and then, observation was made under laser confocal microscope (Leica TCSNT system).
Further, COS-7 cells cultivated in 100 mm culture plate were treated according to the above method. Then, the cells were divided into cytoplasmic fraction and cell membrane fraction. They were loaded onto 10% SDS-PAGE gel and then, Western blotting was carried out using anti-His monoclonal antibodies.
As shown in the figures, HRF was detected within the cells at 1 minute after its addition.

[2] = tested on: RBL-2H3 cells; test: Intracellular Na+ concentration (sodium green fluorescence); conditions: IgE-sensitized RBL-2H3 cells, HRF 10˜20 μg/ml
Protocol: RBL-2H3 cells were loaded onto 24-well plate at 3.0×10^5˜1×10^6 cells/ml and cultivated at 37° for 18 hours. Hams F-12 culture (phenol red or serum-free 2 mM sodium bicarbonate and 10 mM HEPES, pH 7.3) was mixed with sodium green tetracetate dye (Molecular Probes, Eugene, Oreg.) at a final concentration of […] and the mixture was loaded onto the cells (Amorino and Fox, 1995). The cells were sensitized with 0.2 μg/ml of rat IgE (Serotec) for 45˜60 minutes and then, cultivated at room temperature for about 20˜60 minutes and washed three times with F-12 medium. Subsequently, thereto was added HRF (10˜20 μg/ml) in histamine releasing buffer and then, fluorescence was measured with microtiter reader (FL600, Bio-tek Instruments, Inc., Winooski, Vt.) at 485/530 nm for 15 minutes. The mixed solution of Na^+ and K^+ at an appropriate concentration was measured using gramicidin D (Sigma) as calibration (Amorino and Fox, 1995).

[3] = tested on: (Na,K)ATPase; test: Inhibitory activity on (Na,K)ATPase (86Rb+ tracer, K+-uptake); conditions: 10˜20 μg/ml HRF
Protocol: RBL-2H3 cells were cultivated and sensitized according to the same procedures as in Example 6 and then, washed three times with Krebs-Ringer buffer (KRP, 140 mM NaCl, 5 mM KCl, 10 mM Na2HPO4, 1 mM MgSO4, 1.4 mM CaCl2, 2.5 mM glucose, pH 7.4). Subsequently, the cells were incubated at 37° C. for 15 minutes and then, thereto was added 0.1% bovine serum albumin (BSA)-containing KRP buffer comprising 1 mM ouabain. ^86Rb^+([…], NEN) was used as a tracer and the cells were cultivated for 5˜10 minutes. 10˜20 µg/ml HRF was added thereto and K^+-uptake was measured for 5, 10 and 15 minutes, respectively.

[4] = tested on: RBL-2H3 cells; test: Intracellular Ca2+ concentration (Fluo-3-AM)
Protocol: RBL-2H3 cells were cultivated according to the same procedure as in Example 6 and then, washed with Krebs-Ringer buffer (KRH, 125 mM NaCl, 1.2 mM KH2PO4, 1.2 mM MgSO4, 6 mM glucose, 2 mM CaCl2, 25 mM Hepes, pH 7.4). Subsequently, they were incubated with 2 μM Fluo-3-AM (Molecular Probes, Eugene, Oreg.) and KRH buffer containing 0.2% BSA for 30 minutes and then, the culture was corrected with DMEM complete medium for 10˜30 minutes. Subsequently, the cells were washed with KRH buffer and sensitized according to the same procedure as in Example 6. After the sensitization, the cells were treated with HRF, anti-IgE (Serotec) and each inhibitor together with histamine releasing buffer (100 mM NaCl, 0.4 mM MgCl2, 5 mM KCl, 5.6 mM glucose, 0.1% BSA, 25 mM Hepes, pH 7.4) in the presence or absence of Ca^2+. The fluorescence of fluo-3AM was measured at 488/515 nm using laser scanning confocal microscope.

[5] = tested on: PC12 cells; test: [3H]-dopamine release by HRF
Protocol: It was examined whether or not HRF functions as the inhibitor of (Na,K)ATPase enzyme to stimulate neurotransmitters release. For this purpose, HRF was added to the culture solution of PC12 cells (Abu-Raya, et al., 1999) and then, changes in [^3H]-labeled dopamine release induced in basal and K^+-depolarized state by addition of HRF were measured. PC12 cells from passage numbers 5 to 15 were cultured in RPMI-1640 medium containing 10% horse serum, 5% fetal bovine serum, penicillin (100 U/ml) and streptomycin (100 μg/ml) with the supply of 5% CO2 at 37° C.
To measure [^3H]-dopamine release, one day prior to the experiment, the cells ([…]) were cultured in 12-well dish coated with poly-L-lysine (10 μg/ml). The fresh medium containing [^3H]-dopamine (0.5 μCi/ml) was loaded thereto and then, the cells were further cultured at 37° C. for 3 hours. They were washed 2 or 3 times with 1 ml of PBS(1×) per well. To Krebs Ringer (KR) buffer (125 mM NaCl, 5 mM KCl, 2 mM CaCl2, 10 mM HEPES, 1.2 mM MgSO4, 1.2 mM KH2PO4, 6 mM glucose, 5 mM NaHCO3), ascorbic acid (0.2 mg/ml), pargyline (0.6 mg/ml) and despiramine (2 μM) were added. Each 1 ml of the mixture was loaded with HRF and the reaction was proceeded at 37° C. for 20 minutes. The release in the depolarization state was measured in KR buffer containing 50 mM KCl, and in Ca^2+-free medium, was measured in KR buffer prepared by removal of CaCl2 with the addition of 0.5 mM EGTA.
Upon completion of the reaction, the radioactivity of the released dopamine was measured after centrifuging the culture solution at 4° C., 1,000×g for 10 minutes. The cells were solubilized with 0.5 N NaOH and then, the radioactivity within the tissue was measured. The release rate (%) of dopamine was calculated by [radioactivity of the supernatant/(radioactivity of the supernatant+radioactivity within the tissue)×100].
As compared with the increase in basal release, the increase in K^+-stimulated release was shifted to left, but the extent thereof was relatively small.

[6] = tested on: PC12 cells; test: Inhibition of HRF-stimulated dopamine release by HRF-binding peptide; conditions: 15 μg/ml of HRF
Protocol: In order to confirm whether the peptides blocking histamine release by HRF also block neurotransmitters release in nerve cells, the peptide of SEQ ID No. 14 (p2) was tested for its effects on dopamine release stimulated by HRF according to the substantially same procedure as in Example 16.

B1: HRF: recombinant full-length rat HRF overexpressed in E. coli; protein consisting of 172 amino acids (protein)
chain: MIIYRDLISHDELFSDIYKIREIADGLCLEVEGKMVSRTEGAIDDSLIGGNASAEGPEGEGTESTVVTGVDIVMNHHLQETSFTKEAYKKYIKDYMKSLKGKLEEQKPERVKPFMTGAAEQIKHILANFNNYQFFIGENMNPDGMVALLDYREDGVTPFMIFFKDGLEMEKC
modifications: left off: small tags and cut ends
notes: recombinant full-length rat HRF overexpressed in E. coli; protein consisting of 172 amino acids
time after addition at which HRF was detected within the cells [1]: 1 min
effect on intracellular Na+ concentration [2]: increased the intracellular Na^+ concentration
decrease of (Na,K)ATPase activity ([3]; K+-uptake measured for 5 minutes): 10.8%
decrease of (Na,K)ATPase activity ([3]; K+-uptake measured for 10 minutes): 40.4%
decrease of (Na,K)ATPase activity ([3]; K+-uptake measured for 15 minutes): 50.7%
effect on intracellular Ca2+ concentration [4]: intracellular Ca^2+ concentration was increased
HRF concentration at which dopamine release was steeply increased and the cells detached and reached to death [5]: ≥ 30 µg
K+-stimulated dopamine release in depolarization ([5]; 50 mM KCl): dose-dependently increased K^+-stimulated dopamine release
basal release of dopamine ([5]; basal state): dose-dependently increased the basal release of dopamine
dopamine release at HRF 10 μg ([5]; basal, HRF 10 μg): increased to the extent similar to the K^+-stimulated release in depolarization
increase of dopamine release [6]: about 110%
